Measured values published in patent US12358954B2, “Capsid-modified rAAV vector compositions and methods therefor” (priority 2012, dated 2025).

Tested on: K562 cells
Experiment: AAV6 transduction of K562 cells after enzyme / inhibitor treatment
Format: cell-based, human
Description: More recently, Denard et al. reported that galectin-3-binding protein in human sera agglutinates AAV6 vectors, which results in decreased transduction efficiency of these vectors. […] The identity of the putative receptor for AAV6 vectors in human CD34^+ cells remains elusive, and additional studies are warranted. […] The implication is that AAV6 uses a protein rather than a lipid on K562 cells for binding and entry into these cells. In addition, because AAV6 is known to have evolved from recombination between AAV1 and AAV2, and because AAV2 uses heparan sulfateproteoglycan (HSPG) as the primary cellular receptor, the level of HSPG expression on K562 cells surface was examined by FACS. […] The effect of inhibitors of O-linked and N-linked glycosylation was also evaluated on the transduction efficiency of AAV6 vectors in K562 cells.

B1: Proteinase K: Proteinase K (Sigma-Aldrich Co.) (protein, UniProt P06873 106-384, looked up)
Proteinase K: AAQTNAPWGLARISSTSPGTSTYYYDESAGQGSCVYVIDTGIEASHPEFEGRAQMVKTYYYSSRDGNGHGTHCAGTVGSRTYGVAKKTQLFGVKVLDDNGSGQYSTIIAGMDFVASDKNNRNCPKGVVASLSLGGGYSSSVNSAAARLQSSGVMVAVAAGNNNADARNYSPASEPSVCTVGASDRYDRRSSFSNYGSVLDIFGPGTSILSTWIGGSTRSISGTSMATPHVAGLAAYLMTLGKTTAASACRYIADTANKGDLSNIPFGTVNLLAYNNYQA
Question: For B1, which “effect on AAV6 vector-mediated transduction of K562 cells” value is on record?
Answer: dramatically decrease
